{"source": "patent US20170067880A1", "about": "(Genentech, published 2017)", "binders": {"B1": {"name": "antibody F1 (antibody, V domains shown)", "VH": "EVQLLESGGGLVQPGGSLRLSCAASGFTLSRFAMSWVRQAPGRGLEWVASINNGNNPYYARSVQYRFTVSRDVSQNTVSLQMNNLRAEDSATYFCAKDHPSSGWPTFDSWGPGTLVTVSS", "VL": "DIQLTQSPSALPASVGDRVSITCRASENVGDWLAWYRQKPGKAPNLLIYKTSILESGVPSRFSGSGSGTEFTLTISSLQPDDFATYYCQHYIRFPYTFGQGTKLEIKR", "notes": "also called rF1; recombinant F1"}}, "key": {"[1]": {"target": "T1, MBP-SDS with C-terminal His tag, expressed in S. aureus (UniProt P0AEX9 27-396 = MBP)", "T1 construct": "mature; One of the small SD peptide constructs, expressed in S. aureus RN4220 delta sortase; not shown: C-terminal His tag", "assay": "Western blot of MBP fusion constructs expressed in S. aureus"}, "[2]": {"target": "T2, MBP-SD with C-terminal His tag, expressed in S. aureus (UniProt P0AEX9 27-396 = MBP)", "T2 construct": "mature; One of the small SD peptide constructs, expressed in S. aureus RN4220 delta sortase; not shown: C-terminal His tag", "assay": "Western blot of MBP fusion constructs expressed in S. aureus"}, "[3]": {"target": "T3, MBP-DSD with C-terminal His tag, expressed in S. aureus (UniProt P0AEX9 27-396 = MBP)", "T3 construct": "mature; One of the small SD peptide constructs, expressed in S. aureus RN4220 delta sortase; not shown: C-terminal His tag", "assay": "Western blot of MBP fusion constructs expressed in S. aureus"}, "[4]": {"target": "T4, E. coli expressed N-terminal Unizyme tagged SdrD, incubated with S. aureus lysate (Staphylococcus aureus (USA300), UniProt Q2FJ78 36-1347, modified by incubation with cleared lysate of delta-Pan Sdr mutant Newman S. aureus; modification not identified)", "T4 construct": "mature; Made in E. coli 58F3, purified, captured on NiNta resin, then incubated with S. aureus lysate for 1 hr at 37 C; also called E. coli expressed Sdr protein SdrD; not shown: N-terminal Unizyme tag (ST239 vector, Genentech)", "T4 sequence (Q2FJ78 36-1347)": "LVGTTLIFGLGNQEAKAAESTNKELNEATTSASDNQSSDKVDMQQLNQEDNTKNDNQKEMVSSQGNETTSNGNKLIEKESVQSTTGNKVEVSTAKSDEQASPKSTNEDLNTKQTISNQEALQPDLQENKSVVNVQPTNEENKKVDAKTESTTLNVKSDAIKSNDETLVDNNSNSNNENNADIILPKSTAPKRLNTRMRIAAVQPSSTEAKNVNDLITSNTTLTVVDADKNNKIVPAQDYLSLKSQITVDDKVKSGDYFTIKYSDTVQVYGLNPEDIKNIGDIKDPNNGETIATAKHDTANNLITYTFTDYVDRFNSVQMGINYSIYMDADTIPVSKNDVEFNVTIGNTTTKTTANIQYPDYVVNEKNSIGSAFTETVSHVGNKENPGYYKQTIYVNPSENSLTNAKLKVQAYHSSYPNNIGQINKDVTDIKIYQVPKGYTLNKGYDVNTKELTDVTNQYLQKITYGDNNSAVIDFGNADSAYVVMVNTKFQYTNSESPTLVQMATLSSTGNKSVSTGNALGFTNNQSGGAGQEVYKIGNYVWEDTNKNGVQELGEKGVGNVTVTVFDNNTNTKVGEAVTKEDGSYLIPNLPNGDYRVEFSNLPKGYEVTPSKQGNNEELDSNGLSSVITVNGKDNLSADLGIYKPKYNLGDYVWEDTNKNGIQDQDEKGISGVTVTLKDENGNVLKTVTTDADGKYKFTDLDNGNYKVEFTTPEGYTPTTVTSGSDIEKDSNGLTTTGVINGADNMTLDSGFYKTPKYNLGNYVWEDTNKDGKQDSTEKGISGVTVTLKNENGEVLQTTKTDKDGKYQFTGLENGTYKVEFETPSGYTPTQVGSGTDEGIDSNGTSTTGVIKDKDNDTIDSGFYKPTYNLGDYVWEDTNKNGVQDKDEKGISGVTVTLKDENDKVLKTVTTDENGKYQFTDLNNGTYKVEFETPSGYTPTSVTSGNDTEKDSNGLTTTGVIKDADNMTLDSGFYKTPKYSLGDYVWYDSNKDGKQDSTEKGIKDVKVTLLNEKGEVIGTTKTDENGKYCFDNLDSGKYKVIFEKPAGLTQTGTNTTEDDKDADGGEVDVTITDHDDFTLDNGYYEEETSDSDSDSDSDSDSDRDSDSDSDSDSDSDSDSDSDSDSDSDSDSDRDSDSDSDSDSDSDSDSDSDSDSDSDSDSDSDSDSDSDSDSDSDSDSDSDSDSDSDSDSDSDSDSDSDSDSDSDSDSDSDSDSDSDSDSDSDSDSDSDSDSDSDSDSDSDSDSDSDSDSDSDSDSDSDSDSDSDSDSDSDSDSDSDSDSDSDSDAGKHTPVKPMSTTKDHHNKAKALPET", "assay": "Western blot of NiNta-captured E. coli protein after incubation with S. aureus lysate"}, "[5]": {"target": "T5, E. coli expressed N-terminal Unizyme tagged SdrC, incubated with S. aureus lysate (Staphylococcus aureus (USA300), UniProt Q2FJ79 51-913, modified by incubation with cleared lysate of delta-Pan Sdr mutant Newman S. aureus; modification not identified)", "T5 construct": "mature; Made in E. coli 58F3, purified, captured on NiNta resin, then incubated with S. aureus lysate for 1 hr at 37 C; also called E. coli expressed Sdr protein SdrC; not shown: N-terminal Unizyme tag (ST239 vector, Genentech)", "T5 sequence (Q2FJ79 51-913)": "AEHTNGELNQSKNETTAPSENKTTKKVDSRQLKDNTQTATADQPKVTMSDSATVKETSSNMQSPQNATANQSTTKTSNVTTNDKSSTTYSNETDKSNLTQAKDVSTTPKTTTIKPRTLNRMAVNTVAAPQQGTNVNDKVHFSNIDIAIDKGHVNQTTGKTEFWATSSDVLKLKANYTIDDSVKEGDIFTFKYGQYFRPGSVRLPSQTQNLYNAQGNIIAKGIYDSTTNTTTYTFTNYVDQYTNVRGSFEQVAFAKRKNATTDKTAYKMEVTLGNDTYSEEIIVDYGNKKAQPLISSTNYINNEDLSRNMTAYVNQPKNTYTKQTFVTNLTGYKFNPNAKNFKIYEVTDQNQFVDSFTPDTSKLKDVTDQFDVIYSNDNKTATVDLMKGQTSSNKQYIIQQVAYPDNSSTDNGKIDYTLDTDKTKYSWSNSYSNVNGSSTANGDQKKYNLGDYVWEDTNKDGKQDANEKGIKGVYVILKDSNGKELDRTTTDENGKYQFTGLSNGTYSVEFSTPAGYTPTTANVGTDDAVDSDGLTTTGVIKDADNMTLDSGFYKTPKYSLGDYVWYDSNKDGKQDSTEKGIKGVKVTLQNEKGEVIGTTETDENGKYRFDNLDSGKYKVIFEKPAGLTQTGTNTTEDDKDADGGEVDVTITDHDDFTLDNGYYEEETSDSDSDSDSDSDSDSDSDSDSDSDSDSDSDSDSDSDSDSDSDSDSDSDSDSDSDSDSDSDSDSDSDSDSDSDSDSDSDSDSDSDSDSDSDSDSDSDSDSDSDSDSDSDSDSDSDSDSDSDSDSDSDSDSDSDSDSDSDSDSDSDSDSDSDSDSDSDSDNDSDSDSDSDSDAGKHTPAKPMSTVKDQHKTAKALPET", "assay": "Western blot of NiNta-captured E. coli protein after incubation with S. aureus lysate"}, "[6]": {"target": "T6, E. coli expressed N-terminal Unizyme tagged SdrE, incubated with S. aureus lysate (Staphylococcus aureus (USA300), UniProt Q2FJ77 53-1120, modified by incubation with cleared lysate of delta-Pan Sdr mutant Newman S. aureus; modification not identified)", "T6 construct": "mature; Made in E. coli 58F3, purified, captured on NiNta resin, then incubated with S. aureus lysate for 1 hr at 37 C; also called E. coli expressed Sdr protein SdrE; not shown: N-terminal Unizyme tag (ST239 vector, Genentech)", "T6 sequence (Q2FJ77 53-1120)": "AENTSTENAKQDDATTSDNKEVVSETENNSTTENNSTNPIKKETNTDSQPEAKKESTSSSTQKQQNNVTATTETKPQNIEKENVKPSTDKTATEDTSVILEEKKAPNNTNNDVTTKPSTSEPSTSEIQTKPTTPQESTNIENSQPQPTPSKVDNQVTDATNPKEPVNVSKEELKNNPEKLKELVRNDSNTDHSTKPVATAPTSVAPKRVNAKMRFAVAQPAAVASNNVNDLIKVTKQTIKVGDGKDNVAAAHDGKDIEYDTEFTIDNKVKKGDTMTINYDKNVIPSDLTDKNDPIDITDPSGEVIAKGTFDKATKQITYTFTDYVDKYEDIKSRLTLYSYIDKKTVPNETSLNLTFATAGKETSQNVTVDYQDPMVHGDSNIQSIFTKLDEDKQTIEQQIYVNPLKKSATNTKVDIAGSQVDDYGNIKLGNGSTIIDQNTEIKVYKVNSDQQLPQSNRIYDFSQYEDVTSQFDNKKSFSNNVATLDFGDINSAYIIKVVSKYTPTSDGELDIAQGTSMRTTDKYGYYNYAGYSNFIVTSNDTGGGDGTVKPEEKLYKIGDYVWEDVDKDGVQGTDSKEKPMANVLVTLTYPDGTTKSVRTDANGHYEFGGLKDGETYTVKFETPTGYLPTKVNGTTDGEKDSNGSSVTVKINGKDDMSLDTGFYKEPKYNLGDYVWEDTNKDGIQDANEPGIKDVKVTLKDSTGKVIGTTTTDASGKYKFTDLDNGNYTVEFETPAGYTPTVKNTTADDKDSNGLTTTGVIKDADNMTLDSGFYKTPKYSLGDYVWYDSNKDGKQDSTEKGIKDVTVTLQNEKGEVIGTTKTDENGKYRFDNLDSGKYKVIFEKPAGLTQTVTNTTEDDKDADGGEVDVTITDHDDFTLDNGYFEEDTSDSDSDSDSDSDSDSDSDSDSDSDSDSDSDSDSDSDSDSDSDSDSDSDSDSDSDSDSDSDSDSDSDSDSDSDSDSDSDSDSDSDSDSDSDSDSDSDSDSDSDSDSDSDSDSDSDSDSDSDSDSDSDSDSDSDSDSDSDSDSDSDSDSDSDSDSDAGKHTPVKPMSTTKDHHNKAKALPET", "assay": "Western blot of NiNta-captured E. coli protein after incubation with S. aureus lysate"}}}
{"binder": "B1", "values": [{"measurement": "binding result", "setting": "[1]", "value": "no binding"}, {"measurement": "binding result", "setting": "[2]", "value": "no binding"}, {"measurement": "binding result", "setting": "[3]", "value": "no binding"}, {"measurement": "binding result", "setting": "[4]", "value": "binds"}, {"measurement": "binding result", "setting": "[5]", "value": "binds"}, {"measurement": "binding result", "setting": "[6]", "value": "binds"}]}
